Measurements published in patent US5064430A, “Polynonapeptide bioelastomers having an increased elastic modulus” (UAB Research Foundation, priority 1989, dated 1991).
Where two headings read alike, the source gives them in different places. Ends that are not written are not given here.

What was measured:
[1] = Solubility in water as a function of temperature; format: physicochemical
[2] = Temperature profiles of turbidity formation / coacervation (light scattering at 300 nm); format: physicochemical; conditions: for midpoint of the temperature profile of turbidity formation / coacervation: 40 mg/ml (high concentration limit); for onset of aggregation (coacervation): high molecular weight polymer in water
Method: FIG. 3 illustrates temperature profiles of turbidity (TP.tau.) data for poly(VPGFGVGAG) at 40 mg/ml and 1 mg/ml concentrations in H2 O. The aggregational process was monitored by measuring light scattering at 300 nm as a function of temperature using a Cary 14 recording spectrophotometer.
The temperature dependence for aggregation of the polypentapeptide is followed as the development of turbidity at 300 nm using a Cary 14 spectrophotometer. The sample cell is placed within a chamber vibrating at 300 Hz in order to facilitate equilibrium and to keep the aggregates from settling. The scan rate is 30° C./hour and the temperature was controlled with a Neslab ETP-3 programmer and monitored with an Omega 199A thermocouple monitor placed at the cell. The turbidity as a function of temperature provides a temperature profile for coacervation which is found to be concentration dependent. As the concentration is raised, the profile shifts to lower temperatures until further increases in concentration cause no further lowering of the temperature for aggregation. This defines the high concentration limit. The temperature for the onset of coacervation at the high concentration limit coincides with the temperature for the onset of the transition within the coacervate itself, even when there is no appreciable change in water content of the coacervate. […] When the midpoint is 25° C. for the PPP, the molecular weight is close to 100,000 daltons as calibrated by dialysis. For the Ile^1 -PPP with a midpoint of 9° C., the molecular weight is greater than 50,000 daltons, as the synthetic polypeptide was retained by a 50,000 daltons dialysis membrane. The dialysis was carried out at 4° C. where the Ilel-PPP is in solution.
Polypeptide coacervation in water is reversible aggregation to form a new phase with a distinct composition. Association occurs on raising the temperature, disassociation on lowering the temperature. The process of coacervation was followed by monitoring the turbidity as a function of temperature using a Cary 14 spectrophotometer set at 300 nm, a Neslab ETP-3 temperature programmer with a 30° C./hour scan rate and an Omega 199A thermocouple monitor. The sample cell was placed in a vibrating chamber (300 Hz) to keep the aggregates from settling and to facilitate equilibrium. The temperature profiles for coacervation are concentration dependent. Dilution from a high concentration, after the high concentration limit is reached (approximately 40 mg/ml for high molecular weight elastomeric polypeptides), results in a shift of the turbidity profile to higher temperature.

[3] = Stress/strain studies of γ-irradiation cross-linked matrices (elastic modulus); format: physicochemical; conditions: 25 Mrad cross-linking dose
[4] = Thermoelasticity studies (elastomeric force as a function of temperature); format: physicochemical; conditions: γ-irradiation cross-linked (20 Mrad), fixed extension (40%), in water
Method: Thermoelasticity studies were carried out on a stress-stain instrument built in this Laboratory. The sample is mounted in two Delrin clamps. The top clamp is attached to a Statham UTC strain-gauge and the assembly is fixed. The bottom clamp is attached to a moving platform driven by a variable speed motor. Both clamps are enclosed in a thermostated water jacket. An inner chamber contains the solvent in which the elastomer is immersed which in this case is doubly distilled water. The sample was fixed in the top clamp and equilibrated in water at 60° C. for about an hour. The strain-gauge signal conditioner was balanced for zero force and the bottom clamp was attached to the sample. The sample was left to set overnight at room temperature. The bottom clamp was then adjusted for zero force and the distance between the clamps was measured. The elastomer was elongated to 40% extension at 5° C. and elastomeric force was then determined as a function of temperature. Equilibrium time to achieve constant force at a given temperature was typically twenty-four hours. Force measurements were made in 2° C. increments through the sharp rise in force and 5° C. increments at higher temperatures.
Thermoelasticity studies were carried out on a stress-strain apparatus. Clamping of the sample in the holder was done in two stages to prevent damage to the material at the clamp edge. The sample was first gripped lightly with the top clamp, raised to 60° C. while submerged in water within the temperature jacket and allowed to equilibrate for about 2 hours. The measured force consisting of the weight of the sample and grips in water were set to zero. The bottom grip was then attached to the sample and both grips tightened to hold the sample firmly. The bottom clamp was driven as in a stress-strain measurement and stopped at 40% elongation. Force data were recorded in 5° C. steps starting at 70° C. and continuing to 40° C. where the force approached zero.

[5] = high molecular weight, cross-linked by γ-irradiation (background); cited from earlier work
[6] = test system: fibroblasts; test: Checkerboard assay of Zigmond and Hirsch (chemotaxis) with fibroblasts; format: cell-based
Excerpt: The chemotaxis of the present polynonapeptide towards fibroblasts and endothelial cells can be determined and verified by the well known checkerboard assay of Zigmond and Hirsch. […] Checkerboard analysis of AGVPGFGVG and GFGVGAGVP sequences with fibroblasts using the procedure as described above afforded the following results which are represented graphically in Tables I and II.

Which “temperature below which soluble in water” value [1] does the source give for “Poly[Ala-Gly-Val-Pro-Gly-Phe-Gly-Val-Gly]-OH [poly(VPGFGVGAG)]” here?
The value was “below 5 °C”.

And the “midpoint of the temperature profile of turbidity formation” value ([2]; in water, 1 mg/ml)?
Its value is “about 11 °C”.

What about the “midpoint of the temperature profile of turbidity formation / coacervation” value (“midpoint … of turbidity formation / coacervation” below) ([2]; in water) of the same substance?
The value was “about 8 °C”.

What about the elastic modulus [3] of the same substance?
Its elastic modulus is 10^8 dynes/cm^2.

With “H-(Gly-Val-Gly-Ile-Pro)n -OH (H-GVGIP-OH; also: polymer, (GVGIP) repeated n times) [Ile^1 -PPP]” as the substance, how does the “temperature below which soluble in water” value [1] read?
The value was “below 8 °C”.

And the “onset of aggregation (coacervation)” value [2]?
Its value is ~8 °C.

And the “midpoint … of turbidity formation / coacervation” value ([2]; in water)?
Its value is 9 °C.

And the “temperature of essentially full elastic contraction / maximal elastomeric force” value [4]?
Its value is “about 25 °C”.

For “H-(Gly-Gly-Val-Pro)n -OH (H-GGVP-OH; also: repeated n times (polymer)) [PTP]”, which “temperature below which soluble in water” value [1] is on record?
The value was “below 40 °C”.

And the “onset of aggregation (coacervation)” value [2]?
The value was 48 °C.

What about the “midpoint … of turbidity formation / coacervation” value ([2]; in water) of the same substance?
Its value is 49 °C.

What about the “temperature of essentially full elastic contraction / maximal elastomeric force” value [4] of the same substance?
The value was ~70 °C.

With “(Val-Pro-Gly-Val-Gly)n (VPGVG; also: polymer of repeating pentamer, (VPGVG)n) [PPP, reference compound]” as the substance, how does the “onset of aggregation (coacervation)” value [2] read?
Its value is 24 °C.

And the “midpoint … of turbidity formation / coacervation” value ([2]; in water)?
The value was 25 °C.

And the elastic modulus [5]?
Its elastic modulus is ~10^6 dynes/cm^2.

What about the “temperature of essentially full elastic contraction / maximal elastomeric force” value [4] of the same substance?
The value was 40 °C.

What does the source list for PDGF?
Checkerboard analysis with fibroblasts, positive control ([6]; PDGF at 30 μg/ml (Table II experiment)): 59; Checkerboard analysis with fibroblasts, positive control ([6]; PDGF at 60 μg/ml (Table I experiment)): 21
